Measured values: US20040126856A1, “Factor ixa: factor Vllla interaction and methods therefor” (priority 2004, published 2004)

Tests used:
[1] = tested on: T1, A2 subunit of factor VIIIa
T1 sequence: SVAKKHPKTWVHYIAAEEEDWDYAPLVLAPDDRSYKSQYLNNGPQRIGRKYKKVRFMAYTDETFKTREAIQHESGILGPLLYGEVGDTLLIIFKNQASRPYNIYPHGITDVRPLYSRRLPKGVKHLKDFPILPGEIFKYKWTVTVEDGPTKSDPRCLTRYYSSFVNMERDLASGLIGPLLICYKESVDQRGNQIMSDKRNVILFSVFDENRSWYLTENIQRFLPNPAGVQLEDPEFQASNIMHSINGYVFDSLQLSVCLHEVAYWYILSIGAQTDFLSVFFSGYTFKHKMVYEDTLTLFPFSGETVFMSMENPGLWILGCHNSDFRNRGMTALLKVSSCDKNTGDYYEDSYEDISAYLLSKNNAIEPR

[2] = target: T2, A2 subunit of factor VIIIa (Homo sapiens, UniProt P00451); experiment: Apparent KdA2 of dEGR-IXa proteins: inhibition of IXaWT:A2 subunit interaction in the tenase system; format: biochemical; details: 100 nM IXaWT, 30 nM A2 subunit, 250 nM factor X, 25 μM PL; from IC50 by Eq. 3 (FIG. 3); read-out: Apparent KdA2
T2 construct: cleaved by thrombin at R372-S373, R740-S741, and R1689-S1690 to yield factor VIIIa
T2 sequence (P00451 392-759): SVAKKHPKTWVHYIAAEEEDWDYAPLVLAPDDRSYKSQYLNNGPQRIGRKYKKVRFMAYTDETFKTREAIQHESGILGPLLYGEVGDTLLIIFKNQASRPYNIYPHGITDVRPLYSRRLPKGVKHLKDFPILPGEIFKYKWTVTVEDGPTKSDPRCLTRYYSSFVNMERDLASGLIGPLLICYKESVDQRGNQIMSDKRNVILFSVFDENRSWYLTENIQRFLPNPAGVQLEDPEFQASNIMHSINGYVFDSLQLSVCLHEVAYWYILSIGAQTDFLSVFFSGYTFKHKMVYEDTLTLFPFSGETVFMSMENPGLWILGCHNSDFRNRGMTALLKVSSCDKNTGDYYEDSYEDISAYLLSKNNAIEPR
Method: Determination of KdA2 of Binding of dEGR-IXa Proteins to A2 Subunit.
The apparent Kd (termed KdA2) for binding of each dEGR-IXa protein to the A2 subunit was determined by its ability to inhibit factor IXaWT:A2 subunit interaction in the tenase complex as described earlier for intact factor VIIIa (Mather and Bajaj, 1999; Mather et al., 1997). The reactions were carried out as described for the EC50 experiments above except dEGR-IXa and IXaWT were mixed prior to addition of the A2 subunit; this ensured steady state conditions. Mixtures contained 100 nM IXaWT, 30 nM A2 subunit, 250 nM factor X, 25 μM PL, and various concentrations of dEGR-IXa proteins in TBS/BSA, pH 7.5 containing 5 mM CaCl2. The IC50 (concentration of inhibitor required for 50% inhibition) was determined by fitting the data to the IC50 four-parameter logistic equation of Halfman (1981) given below (Eq. 2). [formula]
where y is the rate of Xa formation in the presence of a given concentration of dEGR-IXa protein represented by x, a is the maximum rate of factor Xa formation in the absence of dEGR-IXa, and s is the slope factor. Each point was weighted equally, and the data were fitted to Equation 2 using the nonlinear regression analysis program GraFit from Erithacus Software. […] To obtain KdA2 values for the interaction of dEGR-IXa proteins with A2, we used the following equation (Eq. 3) as described by Cheng and Prusoff (1973) and further elaborated by Craig (1993). [formula]
where A is the concentration of IXaWT, and EC50 is the concentration of factor IXaWT that gives a 50% maximum response in the absence of the competitor at a specified concentration of factor X used in the experiment.

[3] = target: A2 subunit of factor VIIIa (human) (UniProt P00451); experiment: factor Xa generation at rising A2 subunit, 5 nM IXa; factor X <150 nM; functional Kd
[4] = target: A2 subunit of factor VIIIa (human) (UniProt P00451); experiment: potentiation of factor X activation by A2 subunit (FIGS. 1 and 2); functional Kd
[5] = target: A2 subunit of factor VIIIa (human) (UniProt P00451); experiment: factor Xa generation at rising A2 subunit, 5 nM IXa; factor X >1 µM; functional Kd
[6] = target: T3, dEGR-IXaVIIhelix (factor IXaVIIhelix inactivated with dansyl-Glu-Gly-Arg-chloromethyl ketone) (human, UniProt P08709 364-372, active site inactivated with dansyl-Glu-Gly-Arg-chloromethyl ketone (dEGR-ck); gamma-carboxyglutamic acid residues in the Gla domain (normal Gla content)); experiment: dEGR-IXa competition with 100 nM IXaWT for 30 nM A2 in tenase assay (FIG. 3); apparent KdA2
T3 construct: domain: helix c162-170; also called dEGR-IXVIIhelix

[7] = target: T4, dEGR-IXaPCEGF1 (factor IXaPCEGF1 inactivated with dansyl-Glu-Gly-Arg-chloromethyl ketone) (human, UniProt P04070 88-134, limits assumed, active site inactivated with dansyl-Glu-Gly-Arg-chloromethyl ketone (dEGR-ck); gamma-carboxyglutamic acid residues in the Gla domain (normal Gla content)); experiment: dEGR-IXa competition with 100 nM IXaWT for 30 nM A2 in tenase assay (FIG. 3); IC50 converted by Cheng-Prusoff; apparent KdA2
T4 construct: domain: EGF1

[8] = target: dEGR-IXaR333Q (factor IXaR333Q inactivated with dansyl-Glu-Gly-Arg-chloromethyl ketone) (human, UniProt P00740 47-190; P00740 227-461, active site inactivated with dansyl-Glu-Gly-Arg-chloromethyl ketone (dEGR-ck); gamma-carboxyglutamic acid residues in the Gla domain (normal Gla content)); experiment: as above
[9] = target: T5, dEGR-IXaWT (factor IXaWT inactivated with dansyl-Glu-Gly-Arg-chloromethyl ketone) (human, UniProt P00740 47-190; P00740 227-461, active site inactivated with dansyl-Glu-Gly-Arg-chloromethyl ketone (dEGR-ck); gamma-carboxyglutamic acid residues in the Gla domain (normal Gla content)); experiment: as above
T5 construct: also called dEGR-IXWT

[10] = target: T4, dEGR-IXaPCEGF1 (factor IXaPCEGF1 …); experiment: dansyl fluorescence quenching, 220 nM dEGR-IXa titrated with A2 subunit, bimolecular association fit (FIG. 4)
Method: (§1) The effect of the A2 subunit on the emission intensity of the dansyl moiety in each dEGR-IXa protein was determined using the SLM AB2 spectrofluorometer. Each reaction mixture contained 220 nM dEGR-IXa in 20 mM Hepes, pH 7.2, 100 mM NaCl, 5 mM CaCl₂, 0.01% Tween, 200 μg/ml BSA and 100 μM PL vesicles. The excitation wavelength was 340 nm (slit width, 8 nm) and the emission wavelength was 540 nm (slit width; 8 nm). First, blank values (in triplicate) were obtained for the buffer containing PL. dEGR-IXa was then added and the emission intensity in the absence of the A2 subunit was recorded. Each reaction mixture was subsequently titrated with the A2 subunit and the emission readings (in triplicate) were obtained at each time point. The fluorescence emission intensity at each point was corrected for increases in the reaction volume prior to analysis of the data. […] Data are presented as F/F₀ where F₀ is the emission intensity in the absence of A2 subunit and F is the intensity at a given A2 subunit concentration.

[11] = target: T5, dEGR-IXaWT (factor IXaWT inactivated …); experiment: as above
Method: as §1

T4 sequence (P04070 other isoform, or with tags, fused parts or gaps limits assumed, form in doubt, chain 1 of 2): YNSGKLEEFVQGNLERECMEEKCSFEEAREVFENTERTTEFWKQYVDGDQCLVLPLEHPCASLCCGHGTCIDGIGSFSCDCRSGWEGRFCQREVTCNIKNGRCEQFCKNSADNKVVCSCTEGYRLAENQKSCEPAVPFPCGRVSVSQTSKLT
T4 sequence (heavy, as listed by the source limits assumed, form in doubt, chain 2 of 2): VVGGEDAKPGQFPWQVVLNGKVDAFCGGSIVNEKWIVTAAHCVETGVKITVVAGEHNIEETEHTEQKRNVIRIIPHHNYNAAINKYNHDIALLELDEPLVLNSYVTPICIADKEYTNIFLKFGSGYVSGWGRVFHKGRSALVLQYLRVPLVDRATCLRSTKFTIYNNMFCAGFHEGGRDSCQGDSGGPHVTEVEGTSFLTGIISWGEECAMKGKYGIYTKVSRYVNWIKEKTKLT
T5 sequence (P00740 47-190, form in doubt, chain 1 of 2): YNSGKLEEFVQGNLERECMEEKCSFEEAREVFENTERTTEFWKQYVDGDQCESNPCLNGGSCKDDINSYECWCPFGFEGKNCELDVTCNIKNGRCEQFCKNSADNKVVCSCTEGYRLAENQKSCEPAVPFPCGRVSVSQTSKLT
Chain of dEGR-IXaR333Q (factor IXaR333Q inactivated with dansyl-Glu-Gly-Arg-chloromethyl ketone) (P00740 47-190, form in doubt, chain 1 of 2): as above
Chain of dEGR-IXaR333Q (factor IXaR333Q inactivated with dansyl-Glu-Gly-Arg-chloromethyl ketone) (P00740 227-461 R379Q, form in doubt, chain 2 of 2): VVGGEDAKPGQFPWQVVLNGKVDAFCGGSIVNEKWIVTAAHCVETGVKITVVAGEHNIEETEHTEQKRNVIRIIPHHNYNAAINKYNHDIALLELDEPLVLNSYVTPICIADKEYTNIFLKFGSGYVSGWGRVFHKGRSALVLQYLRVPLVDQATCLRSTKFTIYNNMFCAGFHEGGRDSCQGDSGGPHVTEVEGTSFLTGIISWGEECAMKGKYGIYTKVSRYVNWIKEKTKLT
T3 sequence (light, as listed by the source limits assumed, form in doubt, chain 1 of 2): as the sequence (P00740 47-190, form in doubt, chain 1 of 2) above
T3 sequence (heavy, as listed by the source limits assumed, form in doubt, chain 2 of 2): as the sequence (P00740 227-461 R379Q, form in doubt, chain 2 of 2) above, with L150R, V151L, D152M, Q153T, A154Q, T155D, R158Q counted along it

In the case of “factor IXaWT (wild-type recombinant factor IX activated by factor XIa)”, the “enhancement of factor X activation (factor Xa generation, S-2222 hydrolysis)” value (“enhancement of factor X activation” below) [1] is reported as “The presence of the A2 subunit in the reaction mixtures enhanced the factor X-activating activity of IXaPCEGF1 to the same extent as that of IXaWT”.

“dEGR-IXaPCEGF1: IXaPCEGF1 inactivated with dEGR-ck” gave a Kd [2] of ~100 nM.

“factor IXaVIIhelix (factor IXa replacement mutant in which helix 330-338 (c162-170) is replaced by that of factor VII)” was tested, and the “enhancement of factor X activation” value [1] was “it was absent for the IXaVIIhelix”.

With “factor IXaPCEGF1 (factor IXa replacement mutant in which the EGF1 domain is replaced by that of protein C) (from UniProt P04070 88-134) (enzyme)” the EC50 [3] was 300 nM, the EC50 [4] was 250 nM and the EC50 [5] was 200 nM.

For “factor IXaPCEGF1 (factor IXa replacement mutant in which the EGF1 domain is replaced by that of protein C)”, the “enhancement of factor X activation” value [1] was “The presence of the A2 subunit in the reaction mixtures enhanced the factor X-activating activity of IXaPCEGF1 to the same extent as that of IXaWT”.

For “dEGR-IXaWT: IXaWT inactivated with dansyl-Glu-Gly-Arg-chloromethyl ketone (dEGR-ck)”, the Kd [2] was ~100 nM.

For “dEGR-IXaR333Q: IXaR333Q inactivated with dEGR-ck”, the Kd [2] was ~1800 nM.

B1: A2 subunit of factor VIIIa (other)
chain: SVAKKHPKTWVHYIAAEEEDWDYAPLVLAPDDRSYKSQYLNNGPQRIGRKYKKVRFMAYTDETFKTREAIQHESGILGPLLYGEVGDTLLIIFKNQASRPYNIYPHGITDVRPLYSRRLPKGVKHLKDFPILPGEIFKYKWTVTVEDGPTKSDPRCLTRYYSSFVNMERDLASGLIGPLLICYKESVDQRGNQIMSDKRNVILFSVFDENRSWYLTENIQRFLPNPAGVQLEDPEFQASNIMHSINGYVFDSLQLSVCLHEVAYWYILSIGAQTDFLSVFFSGYTFKHKMVYEDTLTLFPFSGETVFMSMENPGLWILGCHNSDFRNRGMTALLKVSSCDKNTGDYYEDSYEDISAYLLSKNNAIEPR
notes: also called isolated A2 subunit
With B1 the Kd [6] was > 1000 nM, the Kd [7] was 114 nM and the Kd [8] was 1850 nM. For the same molecule, the Kd [9] was 100 nM, the Kd [10] was ~100 nM and the Kd [11] was ~100 nM.
